This passage reports Kd and koff results from publication PMC10355216 (2023).

For experiment [1], the target named is T1, recombinant CSN^ΔCSNAP complex (UniProt Q13098 1-491; Q9UNS2 1-423; Q92905 1-334; Q99627 2-209). Put plainly: SPR. (In SPR one partner is held on a chip, and binding of the other changes the refractive index at the surface.)
For experiment [2], the target named is T1, recombinant CSN^ΔCSNAP complex. Put plainly: SPR. The source holds these as a separate data set.

Where no end group is shown, it is not given here.

In the case of DFFNDFEDLFDDDDIQ-biotin [16AA C-CSNAP peptide, C-terminally biotinylated], the Kd (as a rule, the equilibrium constant for the complex coming apart) in experiment [1] turned out to be 0.4 nM. For the same molecule, the koff (in general, the first-order rate constant of dissociation) in experiment [2] was 0.0014 s⁻¹.

B1: full-length CSNAP, C-terminally biotinylated (natural protein)
chain: MKPAVDEMFPEGAGPYVDLDEAGGSTGLLMDLAANEKAVHADFFNDFEDLFDDDDIQ-biotin
Take B1: the Kd in experiment [1] was determined as 0.068 nM. Further, the dissociation rate constant (koff) in experiment [2] came out at 0.00016 s⁻¹.
For AVHADFFNDFEDLFDDDDIQ-biotin [20AA C-CSNAP peptide, C-terminally biotinylated], in that order: 0.41 nM and 0.001 s⁻¹.
For EFFNDFEDLFDDDDIQ-biotin [D42E C-CSNAP peptide, C-terminally biotinylated], in that order: 2.5 nM and 0.0027 s⁻¹.
